The target in this assay is T1, guanylyl cyclase C (GCC), myc-tagged, full-length, expressed on HEK293-GCC#2 cells (UniProt P25092 24-1073, limits assumed).
T1 construct: whole, on cells; also called GCC antigen; GCC-expressing cells
Nature of the assay: indirect immunofluorescence flow cytometry on HEK293-GCC#2 cells.

T1 sequence (P25092 24-1073 limits assumed): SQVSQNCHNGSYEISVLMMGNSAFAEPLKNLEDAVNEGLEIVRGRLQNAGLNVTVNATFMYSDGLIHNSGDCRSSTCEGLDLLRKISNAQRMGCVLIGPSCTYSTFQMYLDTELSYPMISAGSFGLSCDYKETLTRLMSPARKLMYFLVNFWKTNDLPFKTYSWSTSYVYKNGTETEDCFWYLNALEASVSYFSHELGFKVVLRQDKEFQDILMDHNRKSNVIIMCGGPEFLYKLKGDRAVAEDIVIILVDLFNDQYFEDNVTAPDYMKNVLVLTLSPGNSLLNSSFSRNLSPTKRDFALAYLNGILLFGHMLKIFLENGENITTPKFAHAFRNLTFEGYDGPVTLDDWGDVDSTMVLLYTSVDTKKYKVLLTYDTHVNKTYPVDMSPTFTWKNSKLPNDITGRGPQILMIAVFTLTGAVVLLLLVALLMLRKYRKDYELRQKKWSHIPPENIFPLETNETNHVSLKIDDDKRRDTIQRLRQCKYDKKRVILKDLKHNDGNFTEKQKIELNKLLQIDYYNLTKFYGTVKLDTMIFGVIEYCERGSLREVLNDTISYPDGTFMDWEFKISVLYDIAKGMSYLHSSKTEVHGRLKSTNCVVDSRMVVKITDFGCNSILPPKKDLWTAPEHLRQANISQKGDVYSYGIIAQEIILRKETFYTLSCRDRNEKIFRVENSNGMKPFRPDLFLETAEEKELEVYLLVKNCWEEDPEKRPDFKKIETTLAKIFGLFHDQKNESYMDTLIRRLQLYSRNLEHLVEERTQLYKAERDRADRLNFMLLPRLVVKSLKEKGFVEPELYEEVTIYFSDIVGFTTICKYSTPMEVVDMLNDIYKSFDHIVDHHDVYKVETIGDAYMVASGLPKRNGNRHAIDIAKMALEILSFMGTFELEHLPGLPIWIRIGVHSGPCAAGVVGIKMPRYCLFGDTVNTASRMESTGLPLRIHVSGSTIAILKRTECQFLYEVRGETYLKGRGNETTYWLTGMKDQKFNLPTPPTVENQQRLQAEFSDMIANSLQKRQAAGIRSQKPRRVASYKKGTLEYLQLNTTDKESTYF
Protocol: HEK293-GCC#2 and vector control cells were grown in standard cell culture medium supplemented with 10% fetal bovine serum (FBS). […] This centrifugation-wash step was repeated once more before cells were re-suspended at a concentration of 5×10⁶ cells/mL in 3% FBS/PBS, and added to the experimental wells of a V-bottom 96-well plate in 100 μL aliquots (˜500,000 cells). The plate was centrifuged for 5 min at 1200 rpm.
Following centrifugation, supernatant was removed from each well and replaced with 50 μL of primary antibody-drug conjugate solution. […] The 96-well dish was covered and incubated at 4° C. (on ice) for 1 hour before solutions were removed from the wells and the cells were washed twice in 100 μL of 3% FBS/PBS (without Ca²⁺ or Mg²⁺).
After completion of the second wash, 50 μL of secondary antibody solution was added to each experimental well, and the covered 96-well plate was placed at 4° C. (on ice) for 1 hour. The plate was then centrifuged, and the supernatant was replaced with 100 μL of 3% FBS/PBS (without Ca²⁺ or Mg²⁺). This centrifugation-wash step was repeated for a total of two cycles. The cells were finally reconstituted in 200 μL of PBS (without Ca²⁺ or Mg²⁺) and loaded onto the BD FACS Canto flow cytometer (BD Biosciences, Franklin Lakes, N.J.). Data were analyzed using FACS II Canto system software and the appropriate filter settings.

B1: 5F9 antibody (anti-GCC human monoclonal antibody 5F9, hIgG1/hKappa) (antibody, V domains shown)
VH: QVQLQQWGAGLLKPSETLSLTCAVFGGSFSGYYWSWIRQPPGKGLEWIGEINHRGNTNDNPSLKSRVTISVDTSKNQFALKLSSVTAADTAVYYCARERGYTYGNFDHWGQGTLVTVSS
VL: EIVMTQSPATLSVSPGERATLSCRASQSVSRNLAWYQQKPGQAPRLLIYGASTRATGIPARFSGSGSGTEFTLTIGSLQSEDFAVYYCQQYKTWPRTFGQGTNVEIKR
notes: The hybridoma antibody was IgG2, kappa; also called hu5F9; Human 5F9 antibody
For the molecule B1, the “Affinity” value was determined as 35 ng/mL.

Source of the values: patent US20190038762A1 (Takeda / Millennium, published 2019).
